Experimental data reported in the nanobody polyreactivity screen of Harvey et al. (2022).

Assay: yeast display, Sf9 membrane polyspecificity reagent, FACS + sequencing; frameworks hold sequencing errors
Method in brief: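 Nanobodies from a synthetic yeast display library (Saccharomyces cerevisiae BJ5465), induced 36–48 hours with galactose, were stained 1 hour at 4 °C with 10% biotinylated, detergent-solubilized Sf9 membrane reagent, enriched on streptavidin microbeads, then FACS-sorted. Anti-HA (expression) and streptavidin (reagent binding) fluorescence set low and high (top ~1%) gates. Polyreactivity labels come from the gate of origin. Genes were colony-PCR amplified, MiSeq 2 × 250 sequenced and filtered by CDR length.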

Sequence	polyreactivity (PSR sort gate)
QVQLVESGGGLVQAGGSLRLTCAASGSILYYAMGWYRQAPGKERELVAAITRSGTTTYYAASVKGRFTISRDNAKKTVYLQMNSLKPEDTAVYFWAARTSYDYDYWGQGTQVTVSS	high polyreactivity
QVQLVESGGGLVQAGGSLRLSCAASGFIFYYYAMGWYRQAPGKERELVASISSDGSTYYADSVKGRFTISRDNAKNTVYLQMNSLKPEDTAVYYCNADRYYPDDLSDGVGTYDYWGQGTQVTVSS	low polyreactivity
QVQLVESGVGLVQAGGSLRLSCAASGSTFYVYTMGWYRQAPGKERELVAAISLSGDNTYYADSVKGRFTISRDNAKNTVYLQMNSLKPEDTAVYYCAADVFYSPSAQKYDSWGQGTQVTVSS	low polyreactivity
QVQLVESGGGLVQAGGSLSLSCAASGSIFASYAMGWYRQAPGKERELVAAITSDGNTYYADSVKGRFTISRDNAKNTVYLQMNSLKPEDTAVYYCAADRYSTYPYAKGTEFYYWGQGTQVTVSS	low polyreactivity
QVQLVESGGGLVQAGGSLRLSCAASGSILPYNAMGWYRQAPGKERELVASISRGGGTNYADSVKGRFTISRDNAKNTVYLQMNSLKPEDTAVYYCAARTLRVDYDSHWYSLVDYWGQGTQVTVSS	low polyreactivity
QVQLVESGAGVVQAGGSLRLSCAASGSTFYRYAMGWYRQAPGKERELVATITNSGGSTYYADSVKGRFTISRDNAKNTVYLQMNSLKPEDTAVYYCARVRSRNTGYYYWGQGTQVTVSS	high polyreactivity
QVQLVESGGGLGQAGGSLRLSTAASGSNFRYNTMGWYRLGPGKERELVAAINISSSSTYYADSLKGRFTISRDNAKNTVYLQMNSLKPEVTAVYYCANRDYVPIATYENDDYWGQGTQVNVSS	low polyreactivity
QVQHVESGGGLVQAGGSLRLSCAASGITFWSNAKGWYRQAPGKEREMVAAITSSGGSTYYADSVKGRFTISRDNAKNTVYLHMNSLKPEDTAVYYCAAPISSSAGWDSYDYWGQGTQVTVSS	low polyreactivity
QVQLVESGGGLVQAGGSLRLSCAASGRTFWYYTMGWYRQAPGKEREFVAAIRGSGTSTYYADSGKARFTISRDNAKNNVYLQMNSLKPEDTAVYYCAAESPVYHLVTYDYWGQGTQVTVSW	high polyreactivity
QVQLVESGGGLVQAGGSLRLSCAASGSTFFFNAMGWYRQAPGKERELVAGISSSGGSTHYADSVKGRFTISRDNAKNTVYLQMNSLKPEDTAVYYCNAQQYLTFRGTGDYWGQGTQVTVSS	low polyreactivity
QVQLEESGRGLVQAGGSLPLIFAASGSIIRGYAMGWYRPAPGKERELVAAINWSGSSTYYADSVKGRLTISRDNAKNTVNLQMNSLIPEDTAVYYCALVYYNRNLGGDYWGQGTKVTVSS	low polyreactivity
QVQLVESGGGLVQAGGSLRLSCAASGIIFDTYAMGWYIQAPGKERELVAAISRSGDTTYYADSVKGRFTISRDNAKNTVYLQMNSLKPEDTAVYYCNARQSRWDKYDYWGQGTQVTVSS	high polyreactivity
QVQLVESGGGLVQAGGSLRLSCAASGSTSRTYAMGWYRQAPGQEMELVAAISSSGGRTYYADSVKGRFTISRDTAKNTVYLEMNSLKPEDTAVYYCNARTYSYRGYNYWGQGTQVTVSS	high polyreactivity
QVQLVESGGGLVQAGGSLRLSCAASGLTLDQYPMGWYRPAPGKEREFVAAISYSGGNTYYADSVKGRFTISRYNAKNTVYLQMNSLKPEETAVYYCAAYYYYFYHKVIWYELDYWGHGTQVTVSS	low polyreactivity
QVQLEESGGGLVQAGGSLRLSCAASGSTFINNAMGWYRQPPGKERELVAAISSGGSTYYADSVKGRFTISRDNAKNTVYLEMNSLKPEDTAVYYCAAEFVETKYPEMDYWGQGTQVTVSS	low polyreactivity
QVQLVESGGGLVQAGGSLRLSCAASGNIFSYYAMGLYRPAPGKERELVAAIDWNGGTTYYADSVKGRFTISRDNAKNTVYLQMNSLKPEDTAVYYCAAAWYWYWFLFEGAPYDYWGQGTQVTVSS	high polyreactivity
QVQLVESGGGLVQAGGSLSLSCAASGSIFAAYTMGWYRQAPGQDRELVAAITSGGTYADSVKGRFTISRDNAKYSVYLQKNSLQPEVTAVYYCYAGNNVVVDYDYWGQGTQVTVSS	low polyreactivity
QVQLVESGGGLVQAGGSLRLSCAASARILRRNAMGWYRQAPGKEREFVAAITWRGGSTYYADSVKGRFTISRDNAKNTVYLQMNSLKPEDTAVYYCAADTYSVEYVLPYYYWGQGTQVTVSS	high polyreactivity
QVQLVESGGGLVQAGGSLRLSCAASGLTFPPNAMGWYRQAPGKEREFVAVISSGGGSTYYADSVMGRFTISRDHAKNTVYLQMNSLKPEDTAVYNCATEYQDGDTEYYYWGQGTQVTVSS	low polyreactivity
QVHLVESGGGLVQAGGSLRLSCAASGSTFETNAMGWYRQSPGKERELVAAIRWSTGNTYYADSVKGRFTISRDNAKNTVYLQMNSLKPEDTAVYYCAAYKGKHYKEGYWGQGTQVTVSS	low polyreactivity
QVQLVESGGGLVQAGGSLRLSCAASGRIFSHYAMGWYRQAPGKERELVAAITWSGGRTYYADSVKGRFTISRDNAKNTVYLQMNSLKPEDTAVYYCNAYPSSSLFDYWGQGTQVTVSS	low polyreactivity
QVPLVESVGGLVQAGGSLRISCAASGGIFRYYAMGRYRQAPGNERELVAAITSSGTSTYYADSVKGRFTISRDNAKNTVYLQMNSLKPEDTAVYYCAAETYYSIYDYWGQGTQVTVSS	high polyreactivity

Sequence	polyreactivity (PSR sort gate)
QVQLVESGGGLVQAGGSLRLSCAASGRTFNYYAMGWSRQAPGKERELVAAITSGGRTNYADSVKGRFTISRDNAKNTVYLQMNSLKPEDTAVYYCATEYYRYRWVGAFRYPVYYWGQGTQVTVSS	low polyreactivity
QLQLVESGGGLVQAGGSLRLSCAASGLIFRYYTMGWYRQAPGKERELVATITRGDSTYYADSVKGRFTISRDNAKNTVYLQMNSLKPEDTAVYFCAAAGWSRVGYWLKYDYWGQGTQVTVSS	high polyreactivity
QVQLVESGGGLVQAGGSLRLSCAASGGTFRSNAMGWYRQAPGKERELVAAITRTGRTNYADSVKGRFTISRDNAKNTVYLQMNSLKPEDTAVYYCNAARYVREYDYWGQGTQVTVSS	high polyreactivity
QVQLVESGGGLVQARGSLRLSCASSGSIFNYYDMGWYRQAPGKERELVAAIDTSGGSTYFADSVKGRFTISRDNAKNTVYLQMNRLKPEDTAVYYCAAEWPYYDKIYDYWGQGTQVTVSS	low polyreactivity
QVQLVESGGGLVQAGGSLRLSCAATGSIFYHYAMGWYRQAPGKERELVAAISGSGGSTYYADSVKGRFTISRDNAKNTVYLQMNSLKPEDTAVYYCAADTSRYHYSRYFFDSDYWGQGTQVTVSS	low polyreactivity
QVQLVESGGGLVQAGGSLRLSCAASGSTFGNYAMGWDRQAPGKERELVAAITSSGRTYYADSVKGRFTISRDNAKNTVYFQMNSLKPEDTAVYYCAAKSSRGGSVGFDYWGQGTQVTVSS	high polyreactivity
QVQLVESGGGLVQAGGSLRLSCAASGRTFWAYAMGWYRQAPGKERELVAAITASGTRTYYADSVKGRFTISRDNAKNTVYLQMNSLKPEDTAVYYCAAERIWWAHAYPTYVANDYWGQGTQVTVSS	high polyreactivity
QVQLVESGGGLVQAGGSLRLSCAASGSIFGRYAMGWYRQAPGKERELVAAISYSGGSTYYADSVKGRFTISRDNAKNTVYLQMNSLKPEDTAFYYCAAETSYYTRWFDGHYYYWGQGTQVTVSS	high polyreactivity
QVQLVESGGGLVHAGGSLPLSCAASGRIFPGYAMRWYRQAPGKEREFVAAIRGTGTSTYYADSVKGRFTISRDNAKNTVYLQMNSLKPEDTAVYYCAASAGYAYNYWGQGTQVTVSS	low polyreactivity
QVQHVESGGGLVQAGLSLRLSCAASGRIFYGYAMGWYRQGPGQEREFVAAITSGGRTYYADSVKGRFTISRDNAKTTVYLQLNSLKPEDTAVYYCAAAQYYRYGYWGQGTQVTVSS	high polyreactivity
QVQHVESAGGLVQAGGSLRLSCAASGSIFPYNAMGWYRQAPGKERELVAAISYSGSTTYYADSVKRRFTISRDNSKNTVYLQMNSLKPEDTAVYYCNTLSWYQYDYWGQGTQVTVSS	high polyreactivity
QVQLVESGGGLVQAGGSLRLSCAASGRTFSQYAMGWYRPAPGKERELVAAITRSGSRTYYADSVKGRFTISRDNAKNTVYLQMNSLKPEDTAVYYCAADGHAGYPIDEYYYWGQGTQVTVSS	high polyreactivity
QVQLVESGGGLVQAGGSLRLSCAASGITFVFYTMGWYRQAPGKERELVAAITSSGVRTSYADSVKGRFTISRDNAKNTVYLQMNSLKPEDTAVYYCAAKPTYVHKPGYNYWGQGTQVTVSS	high polyreactivity
QVQLVESGGGLVQAGGSLRLTCAASGRILGYNDMGWYRHAPGKERELVPTSSGTSTYYADSVKGRFTISRDNAKNTVYLQMNSLKPEVTAVYYCNTDYVITLPAYDYWGQGTQVTVSS	low polyreactivity
QVQIVDSGGGLVQAGGSLRLSCDASGRLISRKAMGWYRQAPGKERELVAAITSGGSTYYADSVKGRFTISRDNAKNTVYLQMNSLKPEDTAVYYCAAVYRGVDSRWYCYDYWGQGTQVTVSS	low polyreactivity
QVQLVESGGGLVQAGGSLRLSCAASGRIFNYYAMGWYRQAPGKVTEFVASITSRGGTTYYADSVKGRFTISRDNAKNTVYLQMNCLKTEDTAVYFCAAVTRQGSRRSRMNYWGQGTQVTVSS	high polyreactivity
QVQLVESGGGLVQAGGSLRLSCAASGFTFETNAMGWYRQAHGKERELVATITGGGSTNYADSVKGRFTISRDNAKNTVYLQMNSLKPEDTAVYYCNAVHEASYAGVDYWGQGTQVTVSS	low polyreactivity
QVQLVESGGGLVQAGGSLRLSCAASGSTFRYSAMGWDRQAPGKEREFVAAISWSGSSTYYADSVKGRFTISRDNAKNTVYLQMNILKPEDTAGYYCAARYRYRSSSYDYWGQGTQVTVSS	high polyreactivity
QVQLVESGGGLVQAGGSLRLSCAASGFIFGGNTMGWSRQAPGKERELVASITLSGGRTHYADSVKGRFTISRDNAKNTVYLQMNSLKPEDTAVYYCARSLASYLHAGDTEYNGSYWGQGTQVTVSS	low polyreactivity
QVQLQESGGGLVQAGASQRLSCAASGYIFYFQYMGWYRQAPGKEREFVAAISDGANTNYADSVKGRFTISRDNAKNTEYLQMNSLKPEDTAVYYCAVYADENYYYIYWGQGTQVTVSS	low polyreactivity
QVQLVESGGGLVQAGGILRLSCAASGFTFGLYAMGWYRQAPGTERELVAAIRNNGGSTYYADSVKGRFTISRDNAKNTVYLQMNSLKPDDTAVYYCAKKSFFTGRWWYDYWGQGTQVSVSS	high polyreactivity
